# According to the supplement of paper PMC9112550, “Optimization of the antimicrobial peptide Bac7 by deep mutational scanning” (BMC Biology, 2022):
# Test system: Escherichia coli TOP10
# Assay: shrunken log2 fold change of peptide-encoding DNA abundance (4.5 h post-induction vs induction); higher = less antimicrobial activity (less host growth inhibition)
# Details: time post-induction: 4.5 h; library: site-saturation at positions 5, 18, 19, 20
# 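Note: peptides expressed intracellularly from a pBAD plasmid library in pooled LB shake-flask culture, induced with 0.3% L-arabinose, DNA abundance read by NGS, three biological replicates, DESeq2 with apeglm shrinkage.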
row,Sequence,shrunken log2 fold change
1,RRIRVRPPRLPRPRPRPEYNPRP,-0.185
2,RRIRRRPPRLPRPRPRPLPFPRP,-0.344
3,RRIRYRPPRLPRPRPRPYLHPRP,-0.0309
4,RRIRFRPPRLPRPRPRPHPNPRP,-0.31
5,RRIRARPPRLPRPRPRPFHEPRP,-0.166
6,RRIRGRPPRLPRPRPRPVGRPRP,0.842
7,RRIRRRPPRLPRPRPRPGGLPRP,0.289
8,RRIRCRPPRLPRPRPRPCWIPRP,-0.464
9,RRIRHRPPRLPRPRPRPFFAPRP,0.0898
10,RRIRMRPPRLPRPRPRPEFTPRP,0.101
11,RRIRVRPPRLPRPRPRPSLWPRP,0.183
12,RRIRERPPRLPRPRPRPFQQPRP,-0.0184
13,RRIRSRPPRLPRPRPRPKNEPRP,-0.011
14,RRIRMRPPRLPRPRPRPHGCPRP,0.669
15,RRIRWRPPRLPRPRPRPLNMPRP,-0.832
16,RRIRPRPPRLPRPRPRPRPTPRP,0.869
17,RRIRWRPPRLPRPRPRPCWLPRP,-0.119
18,RRIRYRPPRLPRPRPRPEKQPRP,-0.000925
19,RRIRNRPPRLPRPRPRPNFDPRP,0.215
20,RRIRWRPPRLPRPRPRPSKHPRP,-0.499
21,RRIRHRPPRLPRPRPRPHCVPRP,-0.01
22,RRIRDRPPRLPRPRPRPLKPPRP,-0.00274
23,RRIRERPPRLPRPRPRPALFPRP,0.0738
24,RRIRRRPPRLPRPRPRPCHRPRP,-0.0875
25,RRIRCRPPRLPRPRPRPQFQPRP,-0.606
26,RRIRERPPRLPRPRPRPKWRPRP,-0.102

row,Sequence,shrunken log2 fold change
1,RRIRTRPPRLPRPRPRPDRCPRP,-0.0274
2,RRIRIRPPRLPRPRPRPCCGPRP,-0.252
3,RRIRGRPPRLPRPRPRPVLKPRP,0.402
4,RRIRFRPPRLPRPRPRPFMIPRP,-0.456
5,RRIRWRPPRLPRPRPRPDSRPRP,-0.251
6,RRIRNRPPRLPRPRPRPHHTPRP,-0.459
7,RRIRPRPPRLPRPRPRPCENPRP,-0.0133
8,RRIRDRPPRLPRPRPRPVECPRP,0.018
9,RRIRLRPPRLPRPRPRPHCHPRP,-0.727
10,RRIRDRPPRLPRPRPRPVKEPRP,-0.0586
11,RRIRYRPPRLPRPRPRPNMQPRP,-0.594
12,RRIRYRPPRLPRPRPRPNHTPRP,-0.259
13,RRIRERPPRLPRPRPRPVKNPRP,0.0428
14,RRIRPRPPRLPRPRPRPDMEPRP,-0.0437
15,RRIRVRPPRLPRPRPRPHVRPRP,-0.0188
16,RRIRSRPPRLPRPRPRPFMVPRP,-0.337
17,RRIRKRPPRLPRPRPRPPLSPRP,0.832
18,RRIRRRPPRLPRPRPRPPPDPRP,1.35
19,RRIRYRPPRLPRPRPRPFTWPRP,-1.51
20,RRIRIRPPRLPRPRPRPVPEPRP,-0.138
21,RRIRKRPPRLPRPRPRPCTWPRP,-0.15
22,RRIRSRPPRLPRPRPRPHWPPRP,0.341
23,RRIRKRPPRLPRPRPRPRIKPRP,0.185
24,RRIRPRPPRLPRPRPRPFGKPRP,-0.164
25,RRIRKRPPRLPRPRPRPQSSPRP,-0.0228
